Reference: article doi:10.1101/2021.02.26.432832 (bioRxiv, 2021)

Biological target: recombinant, reconstituted histone H3/H4 tetramers (Xenopus laevis, UniProt P84233;P62799)
Assay: pull-down

binding result: binds
B1: GST-tagged full-length Ioc4 (natural protein)
chain: MSEAIFQPTDIVLAKVKGFSAWPAMIIPNELIPDNILKTKPVSVHKGKSGSDKKANEDIDADMESEARDREQSEEEEDIEDFGESEANPEKFIIYTPVLKFRKNDTLKSTYCVKFFCDDSYIWVKPMDMKILTSEDCRKWLSGKQRKNKKLIPAYEMAMRGKNGIDIWEFVEYGSYGKPDEEEYVEEEEEENEPEKKAIRPTRSSSRQRQKRASETEKSEGGNSNKRKRVTRSTRQQAIDASEEEEEEEEEKVQEAVRKRPQRTKTKKVVVSKTKPNPKTKAKKEKPKPPKPIKYHFEDDEDWSIVGLGPQDLSIEKTMDPIAKKLSQKKNLEKHVEIKLDLEDKLAGINKLLCDVLCSAINQAVSIKDDFEIILDELQIALDTRGSRNEFITIFQSNNSLLLNFRILFNLRKRELNKWDLWDRFQDIFKHIYSYQFIPDTEDWQLEQNMEIEEMDREKPSFSEDVKEEESKVGA
